In PMC8105673:

Molecular target: scavenger receptor CD36 (human (endogenous in THP-1)) (UniProt P16671)
Assay: flow cytometry on cells; THP-1-derived M1 macrophages pre-incubated with 50 μM HSAUT, HSA_(HOCl) or buffer for 15 min at 0 °C (surface binding, no internalization), then stained with a PE-conjugated anti-CD36 blocking antibody; binding of HSA read indirectly as loss of antibody staining

Sequence of UniProt P16671 (P16671 whole entry): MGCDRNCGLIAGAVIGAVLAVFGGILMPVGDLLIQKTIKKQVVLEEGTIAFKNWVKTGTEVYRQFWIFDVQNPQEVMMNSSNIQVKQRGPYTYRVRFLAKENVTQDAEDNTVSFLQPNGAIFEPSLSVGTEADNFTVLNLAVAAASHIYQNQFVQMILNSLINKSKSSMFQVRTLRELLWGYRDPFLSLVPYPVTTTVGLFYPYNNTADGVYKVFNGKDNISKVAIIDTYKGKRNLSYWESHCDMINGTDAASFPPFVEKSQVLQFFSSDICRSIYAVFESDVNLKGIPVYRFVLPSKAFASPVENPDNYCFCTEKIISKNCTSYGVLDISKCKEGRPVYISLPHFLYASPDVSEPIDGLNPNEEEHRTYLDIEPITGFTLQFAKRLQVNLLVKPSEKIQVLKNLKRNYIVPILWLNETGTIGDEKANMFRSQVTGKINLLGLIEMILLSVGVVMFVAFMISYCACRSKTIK

Work on “HOCl-modified human serum albumin (from UniProt P02768 25-609) (natural protein)” yielded a reduction of the binding of anti-CD36 antibody to the cells of 30%.
